# Source: patent US20250090677A1 (MULTITUDE THERAPEUTICS, published 2025)
# Substitutions are numbered along the chain they refer to.
# T1: Human CDH6-ECD-His (human, UniProt P55285 54-615)
# T1 construct: extracellular domain; Bought protein; also called human CDH6-ECD-His recombinant protein; Human CDH6-EC6D-His; not shown: His tag
# T1 sequence (looked up): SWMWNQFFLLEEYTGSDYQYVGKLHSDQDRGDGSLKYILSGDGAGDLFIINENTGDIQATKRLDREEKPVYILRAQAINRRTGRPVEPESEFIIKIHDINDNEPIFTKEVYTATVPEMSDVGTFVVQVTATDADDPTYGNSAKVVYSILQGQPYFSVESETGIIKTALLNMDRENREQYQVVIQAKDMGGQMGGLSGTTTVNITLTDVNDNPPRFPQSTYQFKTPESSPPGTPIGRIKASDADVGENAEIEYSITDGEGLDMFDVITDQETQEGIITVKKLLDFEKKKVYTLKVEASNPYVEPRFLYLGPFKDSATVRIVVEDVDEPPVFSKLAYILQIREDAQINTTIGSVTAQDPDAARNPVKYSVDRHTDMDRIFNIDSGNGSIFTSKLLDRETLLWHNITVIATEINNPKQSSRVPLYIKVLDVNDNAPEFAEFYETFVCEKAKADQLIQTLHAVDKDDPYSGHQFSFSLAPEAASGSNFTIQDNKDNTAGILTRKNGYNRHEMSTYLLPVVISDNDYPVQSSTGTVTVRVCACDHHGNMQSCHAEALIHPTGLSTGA
# T2: mouse CDH6-ECD-His (mouse, UniProt P97326 54-615)
# T2 construct: extracellular domain; Bought protein; not shown: His tag
# T2 sequence (looked up): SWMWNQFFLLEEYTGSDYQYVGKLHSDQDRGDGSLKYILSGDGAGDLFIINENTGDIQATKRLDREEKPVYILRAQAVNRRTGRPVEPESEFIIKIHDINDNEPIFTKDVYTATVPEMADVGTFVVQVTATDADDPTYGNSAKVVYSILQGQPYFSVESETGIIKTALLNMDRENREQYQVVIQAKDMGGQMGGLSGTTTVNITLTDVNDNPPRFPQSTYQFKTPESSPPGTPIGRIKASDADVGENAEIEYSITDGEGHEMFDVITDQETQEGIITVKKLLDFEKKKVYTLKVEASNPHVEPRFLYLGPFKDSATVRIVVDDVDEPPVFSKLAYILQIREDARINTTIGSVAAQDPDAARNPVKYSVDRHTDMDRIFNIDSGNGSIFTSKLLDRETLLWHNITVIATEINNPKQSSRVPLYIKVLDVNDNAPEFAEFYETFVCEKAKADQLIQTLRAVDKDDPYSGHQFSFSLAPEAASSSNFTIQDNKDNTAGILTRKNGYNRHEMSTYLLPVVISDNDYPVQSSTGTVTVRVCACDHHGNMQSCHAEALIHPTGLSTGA
# T3: cyno monkey CDH6-ECD-His (cyno monkey, UniProt A0A2K5TW62 54-615)
# T3 construct: extracellular domain; Bought protein; also called Cyno CDH6-ECD-His; not shown: His tag
# T3 sequence: T1 sequence (looked up) with Y300H, H457R
# B1: CL069707-H1L1 (antibody, human IgG1, kappa, V domains shown)
# VH: EVQLVESGGGLVQPGGSLRLSCAASGFTFTTYAMNWVRQAPGKGLEWVARIRIKNNNYATYYADSVTDRFTISRDDSKNSLYLQMNSLKTEDTAVYYCVRPDYGNYGLAYWGQGTLVTVSS
# VL: DIQLTQSPSSLSASVGDRVTITCSASSSISSHYLHWYQQKPGKSPKLLIYRSFYLASGVPSRFSGSGSGTDFTLTISSLQPEDFATYYCQQDIVPLTFGQGTKLEIKR
# notes: Humanized IgG1/kappa, produced in 293 cells; also called humanized CL069707-H1L1
# What was measured:
# Human CDH6-ECD-His = target: T1, Human CDH6-ECD-His; test: ELISA, antigen coated at 1 ug/mL, 3-fold antibody dilutions, HRP anti-human antibody, OD450
# Procedure: (§1) CDH9 and […] are the most closely related family members to CDH6. Binding of CL069707-H1L1 on human CDH6, CDH9 and CDH10 ECD domains were analyzed by ELISA Binding Assay. Human […], CDH9-ECD-His and CDH10-ECD-His antigens were obtained from Acro Biosystems, Inc. 100 μL of 1 μg/mL of the antigens diluted in PBS were added to 96 well plates and incubated in 4° C. overnight. The plates were washed 3 times with 300 μL of washing buffer. Then 100 μL/well of 1% BSA blocking reagent were added to the plates, and incubated at 37° C. for 1 h then the blocking reagent were discarded. A 3-fold serial dilution of CL069707-H1L1 was added to the plates and then incubated at 37° C. for 1 h. Then the plates were washed 3 times with 300 μL of washing buffer. 100 μL/well of HRP-conjugated anti-Human antibody diluted in 1% BSA were added to the plates and then incubated at 37° C. for 1 h. The plates were washed 3 times with 300 μL of washing buffer. 100 μL/well of TMB substrate were added to the plates and incubated for about 10 min in room temperature. Then the reaction was stopped with 100 μL/well of stopping solution. OD450 was read with a plate reader and the data were processed.
# (§2) Binding of CL069707-H1L1 on human, cyno monkey, mouse or rat CDH6 antigen were analyzed by ELISA. Human, cyno monkey, mouse and rat CDH6-ECD-His antigens were obtained from Acro Biosystems, Inc. ELISA were done with the same methods as in example 3.1. CL069707-H1L1 binds to human, cyno monkey, mouse and rat CDH6-ECD-His antigens with similar EC50.
# mouse CDH6-ECD-His = target: T2, mouse CDH6-ECD-His; test: as above
# Procedure: as §1, §2
# cyno monkey CDH6-ECD-His [1] = target: T3, cyno monkey CDH6-ECD-His; test: as above
# Procedure: as §1, §2
# cyno monkey CDH6-ECD-His [2] = target: T3, cyno monkey CDH6-ECD-His; test: BLI (Octet), antibody on AHC sensor, antigen 3.13-100 nM, 1:1 model
# Procedure: Binding affinities of CL069707-H1L1 and Ch069707 were measured using the Octet® system based on Bio-Layer Interferometry (BLI) technique. Antibodies were loaded to AHC (Anti-hIgG Fc Capture) at 100 nM concentration. […] From the six different binding curves obtained from each antigen concentration, binding constants (KD) were calculated based on the 1:1 binding model. CL069707-H1L1 and Ch069707 binds to human CDH6-ECD-His antigen with similar affinity. CL069707-H1L1 binds to human CDH6-ECD-His and cyno monkey CDH6-ECD-His antigens with similar affinity.
binder,measurement,setting,value
B1,EC50 (read off the curve),Human CDH6-ECD-His,~0.1 nM
same,EC50 (read off the curve),mouse CDH6-ECD-His,~0.1 nM
same,EC50 (read off the curve),cyno monkey CDH6-ECD-His [1],~0.1 nM
same,Kd,cyno monkey CDH6-ECD-His [2],2.69 nM
